This passage reports fold increase in association with microtubules over wild-type KRIT1 and Kd results from PMC3135476 (Molecular Biology of the Cell, 2011).

For orientation: Kd means the constant that tells how readily two partners part at equilibrium.

In experiment [1] the target is microtubules (U2OS cells) (human (endogenous in U2OS)) (UniProt P07437). Put plainly: co-sedimentation.
In experiment [2] the target is KRIT1(R452E) FERM domain, residues 417-736 (human, UniProt O00522 417-736, R452E). Put plainly: ITC.
Experiment [3] addresses KRIT1 FERM domain, residues 417-736 (wild type) (human, UniProt O00522 417-736). The experiment is described as follows: ITC. (Isothermal titration calorimetry measures the heat released or taken up as one component is titrated into another.)

microtubules (U2OS cells) (human (endogenous in U2OS)), sequence (P07437 whole entry, looked up, the tested form may be a part): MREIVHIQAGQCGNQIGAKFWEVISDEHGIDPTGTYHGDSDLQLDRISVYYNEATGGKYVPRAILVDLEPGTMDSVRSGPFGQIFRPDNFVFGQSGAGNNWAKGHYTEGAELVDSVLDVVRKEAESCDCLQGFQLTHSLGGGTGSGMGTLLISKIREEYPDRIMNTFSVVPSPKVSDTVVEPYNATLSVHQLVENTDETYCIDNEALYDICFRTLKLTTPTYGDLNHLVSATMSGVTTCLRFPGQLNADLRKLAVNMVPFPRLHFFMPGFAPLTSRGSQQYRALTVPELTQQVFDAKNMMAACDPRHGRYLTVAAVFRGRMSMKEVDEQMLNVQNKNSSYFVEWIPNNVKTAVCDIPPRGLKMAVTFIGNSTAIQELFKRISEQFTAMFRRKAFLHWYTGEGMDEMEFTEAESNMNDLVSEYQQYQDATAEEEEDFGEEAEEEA
KRIT1 FERM domain, residues 417-736 (wild type), sequence (O00522 417-736): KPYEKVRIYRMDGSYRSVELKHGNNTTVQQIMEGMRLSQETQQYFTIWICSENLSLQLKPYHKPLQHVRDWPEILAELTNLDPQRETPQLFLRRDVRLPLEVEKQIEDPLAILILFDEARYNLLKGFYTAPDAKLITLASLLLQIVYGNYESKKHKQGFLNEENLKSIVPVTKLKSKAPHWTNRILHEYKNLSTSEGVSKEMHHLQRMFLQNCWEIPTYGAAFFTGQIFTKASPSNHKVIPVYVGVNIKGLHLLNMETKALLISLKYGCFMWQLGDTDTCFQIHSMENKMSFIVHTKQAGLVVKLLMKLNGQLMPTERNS
KRIT1(R452E) FERM domain, residues 417-736, sequence (O00522 417-736 R452E): as the sequence (O00522 417-736) above, with R36E counted along it

In experiment [1], “GFP-fused KRIT1(R452E) (U2OS) (from UniProt O00522 1-736) (natural protein)” returned a fold increase in association with microtubules over wild-type KRIT1 of 8 fold.

B1: Human Rap1 isoform Rap1B (residues 1-167) bound to GMP-PNP (domain or fragment, UniProt P61224 1-167, looked up)
chain: MREYKLVVLGSGGVGKSALTVQFVQGIFVEKYDPTIEDSYRKQVEVDAQQCMLEILDTAGTEQFTAMRDLYMKNGQGFALVYSITAQSTFNDLQDLREQILRVKDTDDVPMILVGNKCDLEDERVVGKEQGQNLARQWNNCAFLESSAKSKINVNEIFYDLVRQINR
For the molecule B1, the Kd in experiment [2] was 67 ± 18.7 µM; in experiment [3], 1.8 ± 0.25 µM.
